Results published in paper PMC8996488 (Journal of molecular biology, 2021).

T1: RecB subunit of E. coli RecBCD (134 kDa) (E. coli, UniProt P08394 1-1180)
T1 sequence (looked up): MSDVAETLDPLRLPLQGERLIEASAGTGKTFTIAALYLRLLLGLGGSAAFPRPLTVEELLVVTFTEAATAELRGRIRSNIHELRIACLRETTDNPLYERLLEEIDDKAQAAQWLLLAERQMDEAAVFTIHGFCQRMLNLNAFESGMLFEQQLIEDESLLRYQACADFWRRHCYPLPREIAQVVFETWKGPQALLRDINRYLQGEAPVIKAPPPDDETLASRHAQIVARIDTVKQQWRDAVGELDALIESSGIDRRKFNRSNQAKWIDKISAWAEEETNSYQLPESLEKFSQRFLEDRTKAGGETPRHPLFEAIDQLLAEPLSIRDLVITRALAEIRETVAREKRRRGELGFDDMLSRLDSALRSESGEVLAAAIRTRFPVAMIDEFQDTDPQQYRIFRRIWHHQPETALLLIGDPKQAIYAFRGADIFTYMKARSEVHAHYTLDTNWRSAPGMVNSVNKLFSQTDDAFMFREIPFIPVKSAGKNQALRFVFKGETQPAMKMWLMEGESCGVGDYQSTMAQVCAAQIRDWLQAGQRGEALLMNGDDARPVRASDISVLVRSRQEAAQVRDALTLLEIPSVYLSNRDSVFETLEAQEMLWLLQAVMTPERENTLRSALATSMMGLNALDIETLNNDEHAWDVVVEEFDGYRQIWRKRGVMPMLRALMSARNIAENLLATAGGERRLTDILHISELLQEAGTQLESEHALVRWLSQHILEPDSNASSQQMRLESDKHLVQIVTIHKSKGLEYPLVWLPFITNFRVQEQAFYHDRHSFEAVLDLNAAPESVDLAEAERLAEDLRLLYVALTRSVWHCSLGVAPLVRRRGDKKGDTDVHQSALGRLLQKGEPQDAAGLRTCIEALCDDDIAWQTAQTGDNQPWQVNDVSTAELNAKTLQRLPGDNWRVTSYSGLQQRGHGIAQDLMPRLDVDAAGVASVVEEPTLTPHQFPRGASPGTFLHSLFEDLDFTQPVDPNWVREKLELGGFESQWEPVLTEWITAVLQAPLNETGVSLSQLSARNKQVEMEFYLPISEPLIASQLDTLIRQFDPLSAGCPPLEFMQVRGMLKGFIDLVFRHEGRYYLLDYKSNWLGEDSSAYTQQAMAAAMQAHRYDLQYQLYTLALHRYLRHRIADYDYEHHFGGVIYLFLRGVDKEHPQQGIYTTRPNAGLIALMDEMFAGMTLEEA

B1: RecC subunit of E. coli RecBCD (natural protein, UniProt P07648 1-1122, looked up)
chain: MLRVYHSNRLDVLEALMEFIVERERLDDPFEPEMILVQSTGMAQWLQMTLSQKFGIAANIDFPLPASFIWDMFVRVLPEIPKESAFNKQSMSWKLMTLLPQLLEREDFTLLRHYLTDDSDKRKLFQLSSKAADLFDQYLVYRPDWLAQWETGHLVEGLGEAQAWQAPLWKALVEYTHQLGQPRWHRANLYQRFIETLESATTCPPGLPSRVFICGISALPPVYLQALQALGKHIEIHLLFTNPCRYYWGDIKDPAYLAKLLTRQRRHSFEDRELPLFRDSENAGQLFNSDGEQDVGNPLLASWGKLGRDYIYLLSDLESSQELDAFVDVTPDNLLHNIQSDILELENRAVAGVNIEEFSRSDNKRPLDPLDSSITFHVCHSPQREVEVLHDRLLAMLEEDPTLTPRDIIVMVADIDSYSPFIQAVFGSAPADRYLPYAISDRRARQSHPVLEAFISLLSLPDSRFVSEDVLALLDVPVLAARFDITEEGLRYLRQWVNESGIRWGIDDDNVRELELPATGQHTWRFGLTRMLLGYAMESAQGEWQSVLPYDESSGLIAELVGHLASLLMQLNIWRRGLAQERPLEEWLPVCRDMLNAFFLPDAETEAAMTLIEQQWQAIIAEGLGAQYGDAVPLSLLRDELAQRLDQERISQRFLAGPVNICTLMPMRSIPFKVVCLLGMNDGVYPRQLAPLGFDLMSQKPKRGDRSRRDDDRYLFLEALISAQQKLYISYIGRSIQDNSERFPSVLVQELIDYIGQSHYLPGDEALNCDESEARVKAHLTCLHTRMPFDPQNYQPGERQSYAREWLPAASQAGKAHSEFVQPLPFTLPETVPLETLQRFWAHPVRAFFQMRLQVNFRTEDSEIPDTEPFILEGLSRYQINQQLLNALVEQDDAERLFRRFRAAGDLPYGAFGEIFWETQCQEMQQLADRVIACRQPGQSMEIDLACNGVQITGWLPQVQPDGLLRWRPSLLSVAQGMQLWLEHLVYCASGGNGESRLFLRKDGEWRFPPLAAEQALHYLSQLIEGYREGMSAPLLVLPESGGAWLKTCYDAQNDAMLDDDSTLQKARTKFLQAYEGNMMVRGEGDDIWYQRLWRQLTPETMEAIVEQSQRFLLPLFRFNQS
B2: RecD subunit of E. coli RecBCD (enzyme, UniProt P04993 1-608, looked up)
chain: MKLQKQLLEAVEHKQLRPLDVQFALTVAGDEHPAVTLAAALLSHDAGEGHVCLPLSRLENNEASHPLLATCVSEIGELQNWEECLLASQAVSRGDEPTPMILCGDRLYLNRMWCNERTVARFFNEVNHAIEVDEALLAQTLDKLFPVSDEINWQKVAAAVALTRRISVISGGPGTGKTTTVAKLLAALIQMADGERCRIRLAAPTGKAAARLTESLGKALRQLPLTDEQKKRIPEDASTLHRLLGAQPGSQRLRHHAGNPLHLDVLVVDEASMIDLPMMSRLIDALPDHARVIFLGDRDQLASVEAGAVLGDICAYANAGFTAERARQLSRLTGTHVPAGTGTEAASLRDSLCLLQKSYRFGSDSGIGQLAAAINRGDKTAVKTVFQQDFTDIEKRLLQSGEDYIAMLEEALAGYGRYLDLLQARAEPDLIIQAFNEYQLLCALREGPFGVAGLNERIEQFMQQKRKIHRHPHSRWYEGRPVMIARNDSALGLFNGDIGIALDRGQGTRVWFAMPDGNIKSVQPSRLPEHETTWAMTVHKSQGSEFDHAALILPSQRTPVVTRELVYTAVTRARRRLSLYADERILSAAIATRTERRSGLAALFSSRE

Legend:
[1] = target: T1, RecB subunit of E. coli RecBCD (134 kDa); test: AUC
[2] = target: B1; test: AUC

Row | binding result [1] | binding result [2] | Binder
1 | binds |  | B1
2 | binds | binds | B2
